The supplement of paper PMC12764529
± gives the half width of the 95% confidence interval.

Experiments:
[1] = folding stability dG unfold from trypsin proteolysis; higher = more stable
In short: (§1)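 Only designs with AlphaFold2 dimer inter-PAE above 15 were retained; each was a mini-protein under 80 residues with no cysteine, in a PA-tagged cDNA display construct. After digestion with trypsin and chymotrypsin and sequencing, K50 was inferred by Bayesian fitting of counts, and unfolding free energy was derived per protease or combined against a sequence-predicted unfolded-state K50 and a shared folded-state K50.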

[2] = folding stability dG unfold from chymotrypsin proteolysis; higher = more stable
In short: as §1

[3] = folding stability dG unfold (combined trypsin and chymotrypsin); higher = more stable
In short: as §1

Sequence: SAGGMRLRIVVKSEEEARELAEALAKKLKEEFPGLKIEVKVVKVEYNEETDLIVVEVEIKVELEDEEPSAGG [r13_585_TrROS_Hall]
- folding stability dG unfold [1]: 4.6 ± 0.33 kcal/mol
- folding stability dG unfold [2]: 4.42 ± 0.19 kcal/mol
- folding stability dG unfold [3]: 4.42 ± 0.35 kcal/mol

Sequence: SAGGMSFTMTVPPSNPNQVVGTNVPVSDVPPNYAYTLHFPNTGTTTTIPVSQAEEVKAQPHIDEITATSAGG [r19_302_JUSTAS]
- folding stability dG unfold [1]: 0.688 ± 0.03 kcal/mol
- folding stability dG unfold [2]: 0.0302 ± 0.085 kcal/mol
- folding stability dG unfold [3]: 0.486 ± 0.04 kcal/mol

Sequence: SAGGMSLEHVTEIVETVTHPDGTKTVTIRLSDPAIWAGEDPATAAALAEAVQAEHADEGVAVTVVGAPSAGG [r13_243_JUSTAS]
- folding stability dG unfold [1]: -0.642 ± 0.26 kcal/mol
- folding stability dG unfold [2]: 1.05 ± 0.042 kcal/mol
- folding stability dG unfold [3]: 0.585 ± 0.15 kcal/mol

Sequence: SAGGMSPDQIWKAKLLSRKKGKNGSVYNIVIYNPDNPKPIFINKPGDNPEDVLKELEELVKKGPIDLESAGG [r13_286_TrMRF]
- folding stability dG unfold [1]: 0.354 ± 0.22 kcal/mol
- folding stability dG unfold [2]: 0.549 ± 0.21 kcal/mol
- folding stability dG unfold [3]: 0.468 ± 0.18 kcal/mol

Sequence: SAGGMSVSFPVDSSEELKKLLPKDYLVEIVSTPPDGSKSVRVVRPEDLEIDLPEGEKYYFEIKFLPKESAGG [r13_461_TrMRF]
- folding stability dG unfold [1]: 0.442 ± 0.072 kcal/mol
- folding stability dG unfold [2]: -0.138 ± 0.093 kcal/mol
- folding stability dG unfold [3]: 0.203 ± 0.19 kcal/mol

Sequence: SAGGMSVTVSTHLSPEELRELVREIVEKNPGLEVKAVEVTDPATGEWRAVPLDEVPADRPVTVRVDLSRSAG [r5_357_JUSTAS]
- folding stability dG unfold [1]: 0.506 ± 0.091 kcal/mol
- folding stability dG unfold [2]: 0.388 ± 0.12 kcal/mol
- folding stability dG unfold [3]: 0.495 ± 0.12 kcal/mol

Sequence: SAGGMTEVSVSEELRAEGGGLERVLVVTITTVTKVYPVGSSNKVEYEESTIVIPADDPAALEAAGVLLSAGG [r13_670_JUSTAS]
- folding stability dG unfold [1]: 0.563 ± 0.07 kcal/mol
- folding stability dG unfold [2]: -0.319 ± 0.36 kcal/mol
- folding stability dG unfold [3]: 0.257 ± 0.16 kcal/mol

Sequence: SAGGMTIFLPLENKEEVIEKLKKEGYKPVEVKEEGDVVTIKVEKKKDEKKEEITIVFYPPSKPEEPVSAGGS [r8_307_JUSTAS]
- folding stability dG unfold [1]: 2.77 ± 0.14 kcal/mol
- folding stability dG unfold [2]: 2.59 ± 0.085 kcal/mol
- folding stability dG unfold [3]: 2.68 ± 0.1 kcal/mol

Sequence: SAGGMTITFTLEFDLEDDRRITVTATIDPTGDDVLITVRVELTLPNGEKLEFTATIVLPPGAHPDELISAGG [r13_3_TrMRF]
- folding stability dG unfold [1]: 4.15 ± 0.38 kcal/mol
- folding stability dG unfold [2]: 5.25 ± 0.24 kcal/mol
- folding stability dG unfold [3]: 5.53 ± 0.85 kcal/mol

Sequence: SAGGMTITVKPPDGTVITYTSETLPEIIAKLDPNGTYTITIEVPKVDPSNGGARPIVKTYTVPKERISAGGS [r16_806_JUSTAS]
- folding stability dG unfold [1]: 0.865 ± 0.11 kcal/mol
- folding stability dG unfold [2]: 1.21 ± 0.17 kcal/mol
- folding stability dG unfold [3]: 1.19 ± 0.17 kcal/mol

Sequence: SAGGMTITVPVDEEEAEEFIREATGELTALAEKYPDVPIEIEFPLKSGRVIRLRVYPKSKKVEIEVYDSAGG [r13_216_TrMRF]
- folding stability dG unfold [1]: 2.48 ± 0.057 kcal/mol
- folding stability dG unfold [2]: 2.559 ± 0.024 kcal/mol
- folding stability dG unfold [3]: 2.57 ± 0.045 kcal/mol

Sequence: SAGGMTITVRVKAENPEEAIKKVEETVRSLGYRVVELKEVEVRYDEATGEVFVEATVEVEPLPEEEGSAGGS [r16_155_TrMRF]
- folding stability dG unfold [1]: 4.37 ± 0.13 kcal/mol
- folding stability dG unfold [2]: 4.81 ± 0.12 kcal/mol
- folding stability dG unfold [3]: 4.8 ± 0.12 kcal/mol

Sequence: SAGGMTITVTVGPGKEEEAVEALKKKTGLKVELVETTPRPVRAPDGTVLEEVEEITIKITKPDPNLKESAGG [r13_943_JUSTAS]
- folding stability dG unfold [1]: -0.511 ± 0.21 kcal/mol
- folding stability dG unfold [2]: -0.269 ± 0.2 kcal/mol
- folding stability dG unfold [3]: -0.638 ± 0.45 kcal/mol

Sequence: SAGGMTKEKALELAEEIAREFAKKHGIEKLELKVEDVVEKEDEVIVRLKIVYPDKVYELDLVVPKDYVSAGG [r13_611_TrMRF]
- folding stability dG unfold [1]: 2.69 ± 0.11 kcal/mol
- folding stability dG unfold [2]: 4.06 ± 0.13 kcal/mol
- folding stability dG unfold [3]: 3.7 ± 0.19 kcal/mol

Sequence: SAGGMTLEELAARVGRVEVEEAEDGGRVLRVTIPLAGPGGPPAPRTFLIEIPPDRPDLTIAEVLARLGSAGG [r13_319_TrMRF]
- folding stability dG unfold [1]: 1.38 ± 0.064 kcal/mol
- folding stability dG unfold [2]: 1.84 ± 0.057 kcal/mol
- folding stability dG unfold [3]: 1.66 ± 0.07 kcal/mol

Sequence: SAGGMTLEELKAKITKVEVEEREDGSLKLRLTIKVKNEDGSEEEIELTITLPEEEKNMSLEELLEKLLSAGG [r13_319_TrROS_Hall]
- folding stability dG unfold [1]: 4.26 ± 0.27 kcal/mol
- folding stability dG unfold [2]: 3.82 ± 0.12 kcal/mol
- folding stability dG unfold [3]: 4.03 ± 0.13 kcal/mol

Sequence: SAGGMTLKIRVKDKEKALEALKALPGIEVKEVKVEKNENGELTVTVESKEALDALKKAGIEVEEIEPSAGGS [r16_381_TrROS_Hall]
- folding stability dG unfold [1]: 2.33 ± 0.15 kcal/mol
- folding stability dG unfold [2]: 3.18 ± 0.087 kcal/mol
- folding stability dG unfold [3]: 2.9 ± 0.16 kcal/mol

Sequence: SAGGMTLNITVEIPGLGTTITKTFSANPSDYEKIARETEEENPEYKLTSVKVTYSPNSITIDATVELVSAGG [r13_196_JUSTAS]
- folding stability dG unfold [1]: 1.38 ± 0.17 kcal/mol
- folding stability dG unfold [2]: 2.38 ± 0.057 kcal/mol
- folding stability dG unfold [3]: 2.04 ± 0.21 kcal/mol
